Source: the RNAGym collection of RNA variant scans (doi:10.1073/pnas.2313332121)
Variants at the floor of the assay were thinned out.

B1: TPR 5TU (parent)
chain: GGAUCUUCUCGAUCUAACAAAAAAGACAAAUCUGCCACAAAGCUUGAGAGCAUCUUCGGAUGCAGAGGCGGCAGCCUUCGGUGGCGCGAUAGCGCCAACGUUCUCAACUAUGACACGCAAAACGCGUGCUCCGUUGAAUGGAGUUUAUCAUG

Variants of: B1
Assay: polymerase ribozyme fitness, log enrichment relative to wild type (log ratio); higher = more active; in vitro selection for triplet polymerase activity
Summary of the method: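 Mutant libraries were PCR-built and transcribed for each subunit of a heterodimeric triplet polymerase ribozyme and selected for one round in triplicate at −7 °C, frozen, before gel excision of extended constructs and streptavidin-bead capture. Input and output libraries were Illumina-sequenced, keeping genotypes with ≥10 input reads and ≥1 read per output. Fitness is a logarithmic ratio of genotype to wild-type enrichment, in base 2, using inverse-variance-weighted replicate averages.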

Variant	polymerase ribozyme fitness (log ratio)
G50U	0.257
G50U G81A C95U	0.505
G50U G67U C85G C103U G140A A147G	≤ -4.2
G50C G117A	-2.37
G50U C95U C118A G140A	≤ -4.2
G50A C96U G141U	-0.125
G50A U55A C87G C103U C116G	≤ -4.2
C51A U82G C96U G143C	≤ -4.2
C51A U55G G58U C95A	-1.74
G50A G58C C99A	≤ -4.2
G50C G92A C116U U151C	≤ -4.2
G50U A52C A64C G92C	≤ -4.2
G50C C57U G59C C99G	≤ -4.2
G50C G68A A142U	≤ -4.2
G50C A52C C105A C125A A142C U146A	≤ -4.2
G50A U56A	-1.5
G50A U56C	-1.2
G50C C85U	-2.99
G50A U53A U56A C75U C116A U134G	≤ -4.2
G50A C76G C93G U102A U135G A150G	≤ -4.2
G50C A64G A89C G94C U101G A106U G133U	-4.12
G50C C57G C95A A115C	≤ -4.2
G50U G70A G136U	≤ -4.2
G50A G62A G117A	-1.7

Variant	polymerase ribozyme fitness (log ratio)
G50C C54U G86A C108U	≤ -4.2
G50A C69U A121U A137C	≤ -4.2
G50A G65A A89U U101A A106C	-4.2
G50C A66C A91U A106C A137C U148A	≤ -4.2
G50U U56A G94U A106G C116G C123U	-0.9
G50C C125A	-2.76
G50C C125U	-3.89
G50C G71U C85A G124U	≤ -4.2
G50U U55A C96U	-0.864
G50A U134A	-3.21
C51A G86C A89U A113U G126A G141U	≤ -4.2
C51G A64C C69U G80A G86A C96U C114A	≤ -4.2
C51G A91G G92U U101C	≤ -4.2
G50A C75U C76U C114G G152U	-4.02
G50C C76U C85U C116G	-2.09
G50U G126A G141C	-4.02
G50U U145C	-0.536
G50C A122C G143A	-4.06
G50C C51G A52U C76U G84U C105U C114U G133A	≤ -4.2
C51A A73U C99U C103A U104A G126C U139A	≤ -4.2
G50A U55A G70A G83C U101A U104A C105G G124U	≤ -4.2
G50U C87U C96A	-1.48
G50U C96G	-0.544
C51A U102A	-1.41

Variant	polymerase ribozyme fitness (log ratio)
G50C G94A C129U U135G	≤ -4.2
G50A C76A G92A U101G G128U U130G	≤ -4.2
G50C C57A A66C C85G	≤ -4.2
G50C G94A C116U	-3.3
C51A A137C	≤ -4.2
G50C C76U	-1.88
C51A G84A U144A	-2.52
G50C C87G C114A A115G	≤ -4.2
G50A C51U U55A G84A C87A C93A C108U G140C U146C	≤ -4.2
G50C C95U U146G	-3.64
G50U U146C	0.0837
G50C G59C G83A	-3.91
C51A G86A G126A G128U G141A	≤ -4.2
G50C U104C C116A G143U	≤ -4.2
G50A C95U C116U	-1.99
G50U A97U A147U	0.621
G50A C57A C76G C93G	≤ -4.2
G50A C57A A66C G81U G86C A97C	≤ -4.2
G50A C87U A97U	-3.34
G50U A122G	-0.236
G50U G84A A91U C116A	≤ -4.2
G50C C87U	-3.6
G50A U77A A106U A113G A121U C131U	≤ -4.2
G50U G92A	-2.93

Variant	polymerase ribozyme fitness (log ratio)
G50U G86C A120C	-3.03
G50C C54U C85U C125U	-4.17
G50A C87U	-1.74
C51A C118G	-3.24
G50U G94A U102C C103U	-3.63
C51A C57U U146G	-1.67
G50A G68C U77C U82G G92C	≤ -4.2
G50A G65A C85U	-3.49
C51A U134G U144A	-4.17
C51A G74A C85A C114A	≤ -4.2
G50U C57U A73U G86U G126U	≤ -4.2
G50U A64G C103G C125A A142G	≤ -4.2
G50C C93G U104C	≤ -4.2
C51A A52C U146G	-2.06
G50C C69A C79A U82G U90G A107G A120G C129G U139G C149G	≤ -4.2
G50C A52C C54U G88A C96G	≤ -4.2
G50U C57U G84U C103U	-2.21
C51A C57G G68C A73C C76G G86U G100C A120G A122C U134A	≤ -4.2
C51A G59U G84U	≤ -4.2
C51A C54U A91U G100U G124A U135C	≤ -4.2
G50U G81A U102G	-2.74
G50U C125G	-0.442
G50A C85G C93A C129G	≤ -4.2
G50C G141U	-2.26

Variant	polymerase ribozyme fitness (log ratio)
G50C C63G C96A C118U A119C	-0.626
G50C C93G C99U	≤ -4.2
G50C C96G U144C	≤ -4.2
G50U C95A U109C	≤ -4.2
G50C U90C U104G	≤ -4.2
G50A U53C U56A A91U G94C A142C	≤ -4.2
G50A G86A C131U	-1.93
G50C G59A	-3.03
G50U U102A	-0.888
G50U U102G	-2.92
G50C G67A U90G A142G	≤ -4.2
G50C C87U A150C U151A	≤ -4.2
G50U G83U C85G	-4.13
C51A C75U	-2.27
G50U A106G	0.264
G50A C103U	-1.49
G50A G59A C96U A122U A142G A147U	-3.67
G50U A60C G84A	-2.47
G50A U90C C96G A115U	≤ -4.2
G50U A66U C69G U135C	≤ -4.2
G50C C103A C149U	≤ -4.2
G50A U77G G81A A91U A97G A122U	≤ -4.2
G50A U145C	-0.761
G50U A52G C75A C85A G92C G126U G128A A147U	≤ -4.2

Variant	polymerase ribozyme fitness (log ratio)
C51A G58A G74C C96U A107C	≤ -4.2
G50A C51A C114U U134C G136A U151G	≤ -4.2
G50U U78C U139G	-3.06
G50C C96A	-3.01
G50C A52G C57U C93A	≤ -4.2
G50C C87U C123A C125G	-3.47
G50A G143C	-3.85
G50C C93U	-4.15
G50C C93A	≤ -4.2
C51A G140C	-4.19
C51A G140U	-4.11
G50U U104G G143U	-3.47
G50A C85G	-3.34
G50A G92A A106G	≤ -4.2
G50A C76U C93U A98C	-3.32
G50C C54U	-2.6
G50U A97U U102A G124A	-2.31
G50A U102A	-3.08
G50U A120U C125G	-0.502
G50A G83C C93G A97C C132G A137G G140U	≤ -4.2
G50A C72U A98C C99A	≤ -4.2
G50C U130C	-1.3
G50C U56A U78A G83A G94U C95A	≤ -4.2
G50C A64U G100U U111C G136C	≤ -4.2

Variant	polymerase ribozyme fitness (log ratio)
G50U A60U	-0.536
G50C G84A U104C A106C	≤ -4.2
G50A G59U G71U A73C C95A C108G	≤ -4.2
C51A C57U G59U G100C A119U A122U U145G	-4.13
G50A G141C	-1.77
G50U C79G A98U C99G	≤ -4.2
G50A C54U C85U C93U G94U G117A	-3.95
G50A G59A G133U	≤ -4.2
G50A G71C U82G C85G	≤ -4.2
C51A A52C A73G G83U U127C	≤ -4.2
G50U C96A C116G U144G	-1.25
G50C C75U C85G	≤ -4.2
G50A C69U G84U A98U A122G	≤ -4.2
G50C G81C C93G C95U A110C	≤ -4.2
G50U A52G	-0.0259
G50C A64C U82G C87G A106U A122C	≤ -4.2
G50U C51U G58U C108G C123G	≤ -4.2
G50A G59A U101G	-0.0298
G50U A66C C76U U82G A89G A138U	≤ -4.2
G50C C118U	-3.01
G50C C118A	-4.05
G50A C51U U55A C76A C105U C108G	≤ -4.2
G50C C118G G140A	≤ -4.2
